Molecular target: Adenosine deaminase (Bos taurus) (UniProt P56658)
Test: Binding efficiency towards mammalian Adenosine deaminase from calf intestinal mucosa

B1: Adenosine deaminase (Bos taurus), P56658 (protein)
chain: MAQTPAFNKPKVELHVHLDGAIKPETILYYGRKRGIALPADTPEELQNIIGMDKPLSLPEFLAKFDYYMPAIAGCREAVKRIAYEFVEMKAKDGVVYVEVRYSPHLLANSKVEPIPWNQAEGDLTPDEVVSLVNQGLQEGERDFGVKVRSILCCMRHQPSWSSEVVELCKKYREQTVVAIDLAGDETIEGSSLFPGHVKAYAEAVKSGVHRTVHAGEVGSANVVKEAVDTLKTERLGHGYHTLEDATLYNRLRQENMHFEVCPWSSYLTGAWKPDTEHPVVRFKNDQVNYSLNTDDPLIFKSTLDTDYQMTKNEMGFTEEEFKRLNINAAKSSFLPEDEKKELLDLLYKAYGMPSPASAEQCL
With B1 the Km was 18.3 µM.

Source: ChEMBL document CHEMBL1135749, “Stereoselective synthesis and antiviral activity of D-2',3'-didehydro-2',3'-dideoxy-2'-fluoro-4'-thionucleosides” (J Med Chem, 2002)
